In patent US20150259426A1 (Novartis, published 2015):

Molecular target: cell-bound human DR5 (Colo205 and other human cell lines) (human, UniProt O14763 56-440)
Experiment: cell-based or functional assay

B1: 11H6-Hu penta (11H6 hu pentamer) (other)
chain: EVQLLESGGGLVQPGGSLRLSCAASGTFDKINNMGWYRQAPGKQRDLVAQITPGGITDYADSVKGRFTISRDNSKNTLYLQMNSLRPEDTAVYYCNAEILKRAYIDVYVNYWGQGTLVTVSSGGGGSGGGGSGGGGSGGGGSGGGGSGGGGSGGGGSEVQLLESGGGLVQPGGSLRLSCAASGTFDKINNMGWYRQAPGKQRDLVAQITPGGITDYADSVKGRFTISRDNSKNTLYLQMNSLRPEDTAVYYCNAEILKRAYIDVYVNYWGQGTLVTVSSGGGGSGGGGSGGGGSGGGGSGGGGSGGGGSGGGGSEVQLLESGGGLVQPGGSLRLSCAASGTFDKINNMGWYRQAPGKQRDLVAQITPGGITDYADSVKGRFTISRDNSKNTLYLQMNSLRPEDTAVYYCNAEILKRAYIDVYVNYWGQGTLVTVSSGGGGSGGGGSGGGGSGGGGSGGGGSGGGGSGGGGSEVQLLESGGGLVQPGGSLRLSCAASGTFDKINNMGWYRQAPGKQRDLVAQITPGGITDYADSVKGRFTISRDNSKNTLYLQMNSLRPEDTAVYYCNAEILKRAYIDVYVNYWGQGTLVTVSSGGGGSGGGGSGGGGSGGGGSGGGGSGGGGSGGGGSEVQLLESGGGLVQPGGSLRLSCAASGTFDKINNMGWYRQAPGKQRDLVAQITPGGITDYADSVKGRFTISRDNSKNTLYLQMNSLRPEDTAVYYCNAEILKRAYIDVYVNYWGQGTLVTVSS
IC50, cell survival, A549: > 10000 pM
IC50, cell survival, BxPC-3: 4.6 pM
IC50, cell survival, Colo205: 1.2 pM
IC50, cell survival, H226: 12.4 pM
IC50, cell survival, H2122: 1.7 pM
IC50, cell survival, Jurkat (72): 1.7 pM
IC50, cell survival, M30: > 10000 pM
IC50, cell survival, MiaPaCa-2: 3.1 pM
IC50, cell survival, Panc-1: 6.7 pM
IC50, cell survival, T24: 3.1 pM
fold improvement of IC50, penta against tetra, A549: 1 fold
fold improvement of IC50, penta against tetra, BxPC-3: 3 fold
fold improvement of IC50, penta against tetra, Colo205: 3 fold
fold improvement of IC50, penta against tetra, H226: 14 fold
fold improvement of IC50, penta against tetra, H2122: 2 fold
fold improvement of IC50, penta against tetra, Jurkat (72): 4 fold
fold improvement of IC50, penta against tetra, M30: 1 fold
fold improvement of IC50, penta against tetra, MiaPaCa-2: 4 fold
fold improvement of IC50, penta against tetra, Panc-1: 35 fold
fold improvement of IC50, penta against tetra, T24: 7 fold

B2: 4E6-Hu penta (4E6 hu pentamer) (other)
chain: EVQLLESGGGLVQPGGSLRLSCAASGRTFGSIRVGWFRQAPGKGREFVSAINRNDGTTYYADSVKGRFTISRDNSKNTVYLQMNSLRPEDTAVYYCAAGLQYNRAADRVPVGAVYWGQGTLVTVSSGGGGSGGGGSGGGGSGGGGSGGGGSGGGGSGGGGSEVQLLESGGGLVQPGGSLRLSCAASGRTFGSIRVGWFRQAPGKGREFVSAINRNDGTTYYADSVKGRFTISRDNSKNTVYLQMNSLRPEDTAVYYCAAGLQYNRAADRVPVGAVYWGQGTLVTVSSGGGGSGGGGSGGGGSGGGGSGGGGSGGGGSGGGGSEVQLLESGGGLVQPGGSLRLSCAASGRTFGSIRVGWFRQAPGKGREFVSAINRNDGTTYYADSVKGRFTISRDNSKNTVYLQMNSLRPEDTAVYYCAAGLQYNRAADRVPVGAVYWGQGTLVTVSSGGGGSGGGGSGGGGSGGGGSGGGGSGGGGSGGGGSEVQLLESGGGLVQPGGSLRLSCAASGRTFGSIRVGWFRQAPGKGREFVSAINRNDGTTYYADSVKGRFTISRDNSKNTVYLQMNSLRPEDTAVYYCAAGLQYNRAADRVPVGAVYWGQGTLVTVSSGGGGSGGGGSGGGGSGGGGSGGGGSGGGGSGGGGSEVQLLESGGGLVQPGGSLRLSCAASGRTFGSIRVGWFRQAPGKGREFVSAINRNDGTTYYADSVKGRFTISRDNSKNTVYLQMNSLRPEDTAVYYCAAGLQYNRAADRVPVGAVYWGQGTLVTVSS
IC50, cell survival, A549: > 10000 pM
IC50, cell survival, BxPC-3: 5 pM
IC50, cell survival, Colo205: 0.7 pM
IC50, cell survival, H226: 27.2 pM
IC50, cell survival, H2122: 0.8 pM
IC50, cell survival, Jurkat (72): 3.6 pM
IC50, cell survival, M30: > 10000 pM
IC50, cell survival, MiaPaCa-2: 3.8 pM
IC50, cell survival, Panc-1: 10.5 pM
IC50, cell survival, T24: 4.3 pM
fold improvement of IC50, penta against tetra, A549: 1 fold
fold improvement of IC50, penta against tetra, BxPC-3: 6 fold
fold improvement of IC50, penta against tetra, Colo205: 5 fold
fold improvement of IC50, penta against tetra, H226: 5 fold
fold improvement of IC50, penta against tetra, H2122: 7 fold
fold improvement of IC50, penta against tetra, Jurkat (72): 5 fold
fold improvement of IC50, penta against tetra, M30: 1 fold
fold improvement of IC50, penta against tetra, MiaPaCa-2: 5 fold
fold improvement of IC50, penta against tetra, Panc-1: 22 fold
fold improvement of IC50, penta against tetra, T24: 10 fold
